B1: Apoptosis-stimulating of p53 protein 2 (Homo sapiens), Q13625-2 (parent)
chain: MDLTLAELQEMASRQQQQIEAQQQLLATKEQRLKFLKQQDQRQQQQVAEQEKLKRLKEIAENQEAKLKKVRALKGHVEQKRLSNGKLVEEIEQMNNLFQQKQRELVLAVSKVEELTRQLEMLKNGRIDSHHDNQSAVAELDRLYKELQLRNKLNQEQNAKLQQQRECLNKRNSEVAVMDKRVNELRDRLWKKKAALQQKENLPVSSDGNLPQQAASAPSRVAAVGPYIQSSTMPRMPSRPELLVKPALPDGSLVIQASEGPMKIQTLPNMRSGAASQTKGSKIHPVGPDWSPSNADLFPSQGSASVPQSTGNALDQVDDGEVPLREKEKKVRPFSMFDAVDQSNAPPSFGTLRKNQSSEDILRDAQVANKNVAKVPPPVPTKPKQINLPYFGQTNQPPSDIKPDGSSQQLSTVVPSMGTKPKPAGQQPRVLLSPSIPSVGQDQTLSPGSKQESPPAAAVRPFTPQPSKDTLLPPFRKPQTVAASSIYSMYTQQQAPGKNFQQAVQSALTKTHTRGPHFSSVYGKPVIAAAQNQQQHPENIYSNSQGKPGSPEPETEPVSSVQENHENERIPRPLSPTKLLPFLSNPYRNQSDADLEALRKKLSNAPRPLKKRSSITEPEGPNGPNIQKLLYQRTTIAAMETISVPSYPSKSASVTASSESPVEIQNPYLHVEPEKEVVSLVPESLSPEDVGNASTENSDMPAPSPGLDYEPEGVPDNSPNLQNNPEEPNPEAPHVLDVYLEEYPPYPPPPYPSGEPEGPGEDSVSMRPPEITGQVSLPPGKRTNLRKTGSERIAHGMRVKFNPLALLLDSSLEGEFDLVQRIIYEVDDPSLPNDEGITALHNAVCAGHTEIVKFLVQFGVNVNAADSDGWTPLHCAASCNNVQVCKFLVESGAAVFAMTYSDMQTAADKCEEMEEGYTQCSQFLYGVQEKMGIMNKGVIYALWDYEPQNDDELPMKEGDCMTIIHREDEDEIEWWWARLNDKEGYVPRNLLGLYPRIKPRQRSLA

Variants of: B1
Conditions: with yap1_chick YAP1, P46936
yap1_chick YAP1, P46936, sequence (P46936 whole entry): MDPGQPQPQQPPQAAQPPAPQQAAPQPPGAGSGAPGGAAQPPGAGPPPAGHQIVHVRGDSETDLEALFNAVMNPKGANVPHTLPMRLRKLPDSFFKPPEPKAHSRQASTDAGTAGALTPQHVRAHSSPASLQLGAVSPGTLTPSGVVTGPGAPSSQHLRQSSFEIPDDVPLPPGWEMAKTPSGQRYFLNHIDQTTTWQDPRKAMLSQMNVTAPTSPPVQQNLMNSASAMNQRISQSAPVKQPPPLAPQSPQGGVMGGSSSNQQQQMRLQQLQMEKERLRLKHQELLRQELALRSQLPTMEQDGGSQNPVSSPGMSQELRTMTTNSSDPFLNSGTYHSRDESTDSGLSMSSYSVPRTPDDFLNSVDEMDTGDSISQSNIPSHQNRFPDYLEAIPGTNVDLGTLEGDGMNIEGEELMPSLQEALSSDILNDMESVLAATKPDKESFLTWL

| Variant | effect of a mutation on the interaction |
| --- | --- |
| Y746A | disrupting interaction |

Variants of: B1
Conditions: with yap1_chick YAP1, P46936
Remark: another data set of the same source

| Variant | effect of a mutation on the interaction |
| --- | --- |
| P747A | decreasing interaction |

Variants of: B1
Conditions: with yap1_chick YAP1, P46936
Remark: another data set of the same source

| Variant | effect of a mutation on the interaction |
| --- | --- |
| Y751A | disrupting interaction |

Variants of: B1
Conditions: with yap1_chick YAP1, P46936
Remark: another data set of the same source

| Variant | effect of a mutation on the interaction |
| --- | --- |
| P749A | disrupting interaction |

Variants of: B1
Conditions: with yap1_chick YAP1, P46936
Remark: another data set of the same source

| Variant | effect of a mutation on the interaction |
| --- | --- |
| P748A | disrupting interaction |

Source: IntAct's records for PubMed 11278422
